The values that follow come from article PMC12460018.

The target in test [1] is recombinant von Willebrand factor, furin-matured (human) (UniProt P04275). The test is described as follows: ELISA + SPR; VWF:FVIIIB, measured by an ELISA combined with a chromogenic assay (ECA) and by Biacore; the table does not say which gave the percent.
Test [2] concerns the target plasma-derived von Willebrand factor, highly purified in-house control preparation (human) (UniProt P04275). The description is as above.

For factor VIII, P00451 20-2351, the VWF:FVIII binding capacity (%) in test [1] was 108%; in test [2], 109%.
